Reference: patent US20260167706A1 (ADRENOMED, published 2026)
Read-outs that look alike come from different tables or passages of the source. Where no end group is shown, it is not given here.

B1: human Adrenomedullin (mature ADM; amidated ADM; bio-ADM), amino acids 1-52 (peptide)
peptide: YRQSMNNFQGLRSFGCRFGTCTVQKLAHQIYQFTDKDKDNVAPRSKISPQGY-NH2
modifications: ends and bridges not checked

Assays:
[1] = molecular target: T1, human recombinant adrenomedullin receptor (CRLR + RAMP3) (human); test: cell-based or functional assay
[2] = molecular target: T1, human recombinant adrenomedullin …; test: cell-based or functional assay; remark: listed apart in the source

T1 sequence (Q16602 whole entry, chain 1 of 2): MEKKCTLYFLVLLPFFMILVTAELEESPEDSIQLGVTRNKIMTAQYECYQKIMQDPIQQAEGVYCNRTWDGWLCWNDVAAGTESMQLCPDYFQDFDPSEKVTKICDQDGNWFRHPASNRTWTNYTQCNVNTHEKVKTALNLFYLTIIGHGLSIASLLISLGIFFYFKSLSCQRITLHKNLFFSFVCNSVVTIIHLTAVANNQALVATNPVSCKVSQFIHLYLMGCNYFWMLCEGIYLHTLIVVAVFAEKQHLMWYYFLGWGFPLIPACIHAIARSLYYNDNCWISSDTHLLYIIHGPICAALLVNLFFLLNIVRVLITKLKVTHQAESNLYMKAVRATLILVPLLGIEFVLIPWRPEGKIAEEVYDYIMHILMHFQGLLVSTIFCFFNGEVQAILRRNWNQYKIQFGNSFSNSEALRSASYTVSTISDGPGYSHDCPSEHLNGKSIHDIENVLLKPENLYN
T1 sequence (O60896 whole entry, chain 2 of 2, further chain): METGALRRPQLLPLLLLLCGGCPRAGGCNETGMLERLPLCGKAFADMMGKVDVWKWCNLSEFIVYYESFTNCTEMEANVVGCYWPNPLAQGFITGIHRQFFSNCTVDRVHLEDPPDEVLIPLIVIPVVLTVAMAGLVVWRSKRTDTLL

Binder	EC50 (read off the curve); cAMP, % activation [1] [nM]	EC50 (read off the curve); cAMP, % activation [2] [nM]
YRQSMNQGSRSNGCRFGTCTFQKLAHQIYQLTDKDKDGMAPRNKISPQGY-NH2 (ends and bridges not checked) [Murine ADM 1-50]	~0.08	
B1		~1
